Values quoted from earlier work, collected in patent US20220323445A1, “REDUCING IMMUNOGENICITY TO PEGLOTICASE” (Horizon Therapeutics Ireland DAC, priority 2020, published 2022).

Tested on: anti-pegloticase antibodies
Settings: cited from earlier work

B1: pegloticase (protein)
chain: TYKKNDEVEFVRTGYGKDMIKVLHIQRDGKYHSIKEVATTVQLTLSSKKDYLHGDNSDVIPTDTIKNTVNVLAKFKGIKSIETFAVTICEHFLSSFKHVIRAQVYVEEVPWKRFEKNGVKHVHAFIYTPTGTHFCEVEQIRNGPPVIHSGIKDLKVLKTTQSGFEGFIKDQFTTLPEVKDRCFATQVYCKWRYHQGRDVDFEATWDTVRSIVLQKFAGPYDKGEYSPSVQKTLYDIQVLTLGQVPEIEDMEISLPNIHYLNIDMSKMGLINKEEVLLPLDNPYGKITGTVKRKLSSRL
modifications: monomethoxy PEG conjugated; Krystexxa Sequence
notes: covalent conjugate of uricase produced by a genetically modified strain of Escherichia coli and monomethoxypoly (ethylene glycol)
patients with antibody titer exceeding 1:2430 at any time who maintained a response (7 of 65 patients): 10.8% | patients with antibody titers exceeding 1:2430 who developed IRs (31 of 52 patients): 60% | patients who never had an antibody titer above 1:2430 (comparison for maintained response) (58/65): 89.2% | participants with high antibody titers who maintained a response (serum urate <6 mg/dL) (second study): 1 of 52 participants
